{
  "source": "paper PMC6110258",
  "key": {"[1]": {"molecular_target": "H5-Strep-tag (Strep-tag II-fused haemagglutinin H5 ectodomain of A/duck/Viet Nam/TG24-01/2005 (H5N1) (influenza A virus A/duck/Viet Nam/TG24-01/2005 (H5N1) | not stated))", "assay": "SEC"}, "[2]": {"molecular_target": "H5-Strep-tag (Strep-tag II-fused haemagglutinin H5 ectodomain of A/duck/Viet Nam/TG24-01/2005 (H5N1) (influenza A virus A/duck/Viet Nam/TG24-01/2005 (H5N1) | not stated))", "assay": "cross-linking"}},
  "data": [
    {"substance": "H5-Strep-tag (Strep-tag II-fused haemagglutinin H5 ectodomain of A/duck/Viet Nam/TG24-01/2005 (H5N1)", "values": [
      {"measurement": "stoichiometry N", "setting": "[1]", "value": 3},
      {"measurement": "stoichiometry N", "setting": "[2]", "value": 3}
    ]}
  ]
}
